Measured values: publication PMC6563103 (Hepatology (Baltimore, Md.), 2019)

Molecular target: T1, glutathione S-transferase (GST)-CGI-58 (UniProt Q8WTS1 1-349)
T1 sequence (looked up): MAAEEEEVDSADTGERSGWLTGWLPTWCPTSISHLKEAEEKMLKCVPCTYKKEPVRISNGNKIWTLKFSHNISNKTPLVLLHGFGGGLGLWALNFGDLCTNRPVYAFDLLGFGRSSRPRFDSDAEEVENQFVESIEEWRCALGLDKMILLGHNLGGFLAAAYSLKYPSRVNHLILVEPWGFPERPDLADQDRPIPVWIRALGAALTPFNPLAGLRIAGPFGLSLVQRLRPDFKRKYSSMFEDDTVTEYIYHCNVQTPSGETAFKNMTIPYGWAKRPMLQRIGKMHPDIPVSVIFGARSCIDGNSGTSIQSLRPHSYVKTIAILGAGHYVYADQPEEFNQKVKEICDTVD
Experiment: pull-down

B1: recombinant PNPLA3(148M), deca-histidine and Flag fusion protein (enzyme, UniProt Q9NST1 1-481, looked up)
chain: MYDAERGWSLSFAGCGFLGFYHVGATRCLSEHAPHLLRDARMLFGASAGALHCVGVLSGIPLEQTLQVLSDLVRKARSRNIGIFHPSFNLSKFLRQGLCKCLPANVHQLISGKIGISLTRVSDGENVLVSDFRSKDEVVDALVCSCFMPFYSGLIPPSFRGVRYVDGGVSDNVPFIDAKTTITVSPFYGEYDICPKVKSTNFLHVDITKLSLRLCTGNLYLLSRAFVPPDLKVLGEICLRGYLDAFRFLEEKGICNRPQPGLKSSSEGMDPEVAMPSWANMSLDSSPESAALAVRLEGDELLDHLRLSILPWDESILDTLSPRLATALSEEMKDKGGYMSKICNLLPIRIMSYVMLPCTLPVESAIAIVQRLVTWLPDMPDDVLWLQWVTSQVFTRVLMCLLPASRSQMPVSSQQASPCTPEQDWPCWTPCSPKGCPAETKAEATPRSILRSSLNFFLGNKVPAGAEGLSTFPSFSLEKSL
molar ratio of PNPLA3 to CGI-58 in the precipitates: ~0.14 mol PNPLA3 per mol CGI-58
